The values that follow come from the nanobody polyreactivity screen of Harvey et al. (2022).

The series in a line: yeast display, Sf9 membrane polyspecificity reagent, FACS + sequencing; frameworks hold sequencing errors. Put shortly: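 Nanobodies came from a synthetic yeast display library in Saccharomyces cerevisiae BJ5465, induced with galactose for 36–48 hours and stained for 1 hour at 4 °C with 10% biotinylated, detergent-solubilized Sf9 membrane reagent. Cells were enriched on streptavidin microbeads and then FACS-sorted, with low and high (top ~1%) gates set on anti-HA fluorescence for expression and streptavidin fluorescence for reagent binding. Each polyreactivity label reflects the gate a clone came from. Genes were amplified by colony PCR, sequenced by MiSeq 2 × 250 and filtered by CDR length.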
In the case of “QVQLVESGGGLVQAGGSLRLSCAASGRTFYSNAMGWYRPAPGKERELVAAITFGGGSTYYADSVKGRFTISRDNAKNTVYVQMNSLKPEDTAVYYCAAEGYKYRFYYWGQGTQVTVSS”, the “polyreactivity (PSR sort gate)” value is on record as “low polyreactivity”.

Consider “QVQLVESGGGLVQAGGRLRLSCAASGSIFRYYDMGWYRQATGKEREFVAAISYRGGTTYYADSVKGRFTISRDNAKNTVYLQMNSLKPEDTAVYYCAKETYRSSSYDWYDYWGQGTQVTVSS”, for which the “polyreactivity (PSR sort gate)” value is “low polyreactivity”.

For the sequence “QVQLVESGGCLVQAGGSLRLSCAASGSIFSGNAMGWYRQAPGKERELVAAISRSGGSKYYADSVKGRFTISRDNAKNTVYLQMNSLKPEDTAVYYFAAYRTHGPPRAIRFDYWGQGTQVTVSS”, the “polyreactivity (PSR sort gate)” value is on record as “high polyreactivity”.

For the sequence “QVQLVESGGGLVQAGGSLRLSCAASGRIFVHYAMGWYRQAPGKERELVAAITSGSSTNYADSVKGRFTISRDNAKNTVYLQMNSLKPEDTAVYYCAADYSVHLVRDRWFDYWGQGTQVTVSS”, the “polyreactivity (PSR sort gate)” value is reported as “low polyreactivity”.

With “QVQLVESGGGLVQAGGSLRLSCAASGFTFVRYAMGWYRQAPGKERELVAAISSSGSSTYYADSVKGRFTISRDPVKNTVYLQMNSLIPEDTAVYYFNARAGGGEDYWGQGTQVTVSS”, the “polyreactivity (PSR sort gate)” value is “low polyreactivity”.

As to “QVQLVESGGGLVQAGGILRLSCAASGIILYINAMGWYRQAPGKERELVAAITSDGSTNYADSVKGRITISRDNAKYTVYLQMNSLKPEDTAVYYCAVDLPWGTGVSQYPESDYWGQGTQVTVSS”, the “polyreactivity (PSR sort gate)” value was “low polyreactivity”.

Regarding “QVQLVESGGGLVQAGGSLRLSCAASGIFSYYAMGWSRQAPGKERELVAAISWSGGSTYYADSVKGRFTISRDNAKNTVYLQKNSLKPEDTAVYYCNKAYLTSQPRLGYWGQGTQVTVSS”, the “polyreactivity (PSR sort gate)” value is given as “high polyreactivity”.

As for “QVQLVESGGGLVQAGGSLRLICAASGRTFGVYAMGWYRQAPGKERELVATIRTTGSTNYADSVKGRYTISRDNAKITVYLEMNSLKTEDTAVYYCAARQRQSKYYPYTTFTYDYWGQGTQVSVSS”, the “polyreactivity (PSR sort gate)” value was “high polyreactivity”.

Take “HVQIVESGGGLVQAGGRLRLSCAASGSTFHDYAMGWYRQATGQERELVAAISNSGGSTYYADSVKARFTISRDNAKNTVYLQMKSQKPEYTAVYYCAADGRWYWDYEYWGQGTQVTVSS”: the “polyreactivity (PSR sort gate)” value was “low polyreactivity”.

As to “QVQLVESGGGLVQAGGSLRLSCAASGSIFDGYAMGWYTQAPGKERELVADINNGADTYYADSVKGRFTISRDNAKNTVYLQMYSLKPEDTAVYYCAARYGTDTDIQNVARYDYWGQGTQVTVSS”, the “polyreactivity (PSR sort gate)” value was “low polyreactivity”.

For “QVQLVESGGGLVQAGGSLRLSCAASGRTFNYYAMGWYRQAPGKERELVAAISASGGRTYYADSVKGRFTISRDNAKNTVYLQMNSLKPAETAVYYCAKVSSFDAQFDYWGQGTQVTVSS”, the “polyreactivity (PSR sort gate)” value was “high polyreactivity”.

Consider “QVQLVESGGGLVQAGGSLRLSCAASGFTFYLYVMGWYRQAPGTEREFVAAITGSGTSTYYADSVKGRFTISRDNAKNTVYLQMNSLKPEDTAVYYCNAKRDRYFYTVKYDYWGQGTQVTVSS”, for which the “polyreactivity (PSR sort gate)” value is “low polyreactivity”.

On to “QVQLVESGGGLVQAGGSLRLSCAASGIIFGRYAMGWYTPAPGKERELVATISYRGGRTYYADSVKGRFTISRDNAKNTVYLQMNSLKPEDTAVYYCAAPHFSYSGGTHDYWGQGTQVTVSS”, for which the “polyreactivity (PSR sort gate)” value was “high polyreactivity”.

Turning to “QVQLVESGGGLVQAGGSLRLSCAASGFTSAPYAMGWYRQAPGKERELVAAITRTGGSTYYADSVKGRFTISRDNAKNTVYLQMNSLKPEDTAVYYCAVRLSGYQYHFRYGYWGQGTQVTVSS”, the “polyreactivity (PSR sort gate)” value is reported as “high polyreactivity”.

For “QVQLVESGGGLVQAGGSLRLSCAASGSTFDVYAMGGYRQAPGKERELVAVISSSDGGITYYADSVKGRFTISRDNAKNTVYLQMNSLKPEDTAVYYCNAESFIWLPQYSDYDYWGQGTQVTVSS”, the “polyreactivity (PSR sort gate)” value is reported as “high polyreactivity”.

As to “QVQLVESAGGLVQAGGSLRLSCSASGSTFSSNGMGWYRKAPGKERELVAAITSVGSTNYADSVKGRFTISRDNAKNTVYLQMNSLKPEDTAVYYCNAERTAYGGGDYWGQGTQVTVSS”, the “polyreactivity (PSR sort gate)” value is “low polyreactivity”.

“QVPLVESGVGLVQAGGSLRLSCAASGSTFTIYAMGWYREAPGKERELVAAITWNGGSTYYADSVKGRFTISRDNAKKTVYLQMNSLKPEDTAVYYCADDYYWYWDLYDYWGQGTQVTVSS”: the “polyreactivity (PSR sort gate)” value is given as “high polyreactivity”.

Turning to “QVQLVESGGGLVQAGVSLRLSCAASAFILEGYAMGWYTQAPGKERELVAAISDSGGSTYYADSVKGRFTISRDNAKNTVYLQMNSLKPEDTAVYYCATAYYWWTAYSYSYDHWGQGTQVTVSS”, the “polyreactivity (PSR sort gate)” value was “high polyreactivity”.

For “QVQLVESGGGLVQAGGSLRLSCAASGFTFIRYAMGWYIQAPGKERELVASISNRGGRTYYADSVKGRFTISRDNAKNTFYLQMNSLKPEDTAVYYCAAKFSSYWSRFGYWGQGTQVTVSS”, the “polyreactivity (PSR sort gate)” value is “high polyreactivity”.

Take “QVQLVESGGGLVQAGGSLRLICAASGRIFSKNAMGWYRQAPGKEREFVAAISRIGGRTYYADSVKGRFTISRDNAKNTVYFQMNSLKPEDTAVYYCATVHYGYTTSYDYWGQGTQVTVSS”: the “polyreactivity (PSR sort gate)” value is “high polyreactivity”.

With “QVQLVESGGGLVQAGGSLRLSCAASGYIFVKNAMGWYRQEPGKERELVAAISSSGGSTYYADSVKGRFTISRDNAKNTVYLQMNSLKPEDTAVYYCNVYGSYTSVSRQSDWWPDYGYWGQGTQVTVSS”, the “polyreactivity (PSR sort gate)” value is reported as “low polyreactivity”.

As to “QVQLVETGGGLVQAGGSLRLSCAASARIFLGYTMGWYRKAPGKEMELVASITWSGGSTYYADSVKGRFTISRDNAKNTVYLQMNRLKPDVTAVYYCNAVYWVARGRYDYWGQGTQVTVSS”, the “polyreactivity (PSR sort gate)” value is “high polyreactivity”.

Take “QVQLVESGGGLVQAGGSLRLSCAASGSIFYLYTMGWYRQAPGKERELVASITYSGGTYYADSVKGRFTISRDNAKNTVYLQINSLKPEDTAVYYCNADASYYLDDEYDYWGQGTQVTVSS”: the “polyreactivity (PSR sort gate)” value is reported as “low polyreactivity”.

“QVQLVESGGGLVQAGGSLRLSCAASGSIFLWYTMGWYRQAPGKERELVAAISSSGGSTYYADSVKGRFTISRDNAKNTVYLQTNSLKPEDNAVYYCAAAKLFYYGRKYGKYDYWGQGTQVTVSS”: the “polyreactivity (PSR sort gate)” value is “high polyreactivity”.

Regarding “QVQLVESGGGLVQAGGSLRLSCAASGSTLGVNAMGWYRQAPGKEREFVAAITGRGGNTYYADSVKGRFTISRDNAKNTVYLQMNSLKPEDTAVYYCAARVKYTRYQSILDYYYWGQGTQVTVSS”, the “polyreactivity (PSR sort gate)” value was “high polyreactivity”.

Turning to “QVQLVESGGGLVQAGGSLRLSCAASASTFSTYAMGSYRQAPGKERELVAAISWSGGSTNYADSVKGRLTISRDIAKYTVYLQMNSLKPEDTAVYYCGARWTSRYDYWGQGTQVTVSS”, the “polyreactivity (PSR sort gate)” value was “high polyreactivity”.

As to “QFPLVESAGGLGQAGGTLRLTWAASGLSFGANTLGWYRHAPGKERELVAALTISGGITHYADSVKGRFTISRDNANNTVYVQIKSLQPEDTAVYYCAAGAYWRLYPYRQRNGGRMYYWGQGTQVTVSS”, the “polyreactivity (PSR sort gate)” value is “low polyreactivity”.

As to “QVQLVESGGGLVQAGGSLRLSCAASGRTFSYYAIGWYRQAPGTERELVAGISYSGGTTYYADSVKGRFTISRDNAKNTVYLQMNSLKPEDTAVYYCATRYWTFSGYDYWGQGTQVTVSS”, the “polyreactivity (PSR sort gate)” value is listed as “low polyreactivity”.

Consider “QVQLVESGGGLVQAGGSLRLSCAASGRTFWKYVMGWYRQAPGKERELVAVISRPAGSTYYADSVKGRFTISRDNAKNTVYLQMNSLKPEDTAVYYCAKRPKNKPVLGDYDHWGQGTQVTVSS”, for which the “polyreactivity (PSR sort gate)” value is “low polyreactivity”.

For the sequence “QVQLVESGGGLVQAGGSLRLSCAASGSTFYNYAMGWYRQAPGKERELVAAISIGGSTYYADSVKGRFTISRDNAKNTVYLQMNSLKPEDTAVYYCAADDGDFYPIDDYWGQGTQVTVSS”, the “polyreactivity (PSR sort gate)” value is on record as “low polyreactivity”.
